Results published in paper PMC8485325, “Penetrating the Blood-Brain Barrier with New Peptide–Porphyrin Conjugates Having anti-HIV Activity” (Bioconjugate Chemistry, 2021).
Ends that are not written are not given here.

What was measured:
bEnd.3 cell monolayers = assay: In vitro BBB translocation assay (bEnd.3 transwell model)
From the text: Assessment of PPC efficacy in BBB translocation was done in a transwell setup (Figure 4A) using bEnd.3 cell monolayers.[44] The bEnd.3 in vitro BBB model consists of a monolayer of cells expressing a range of essential BBB transporters, also bearing the low permeability characteristic of the BBB, suitable for this study.[44]−[46]
Figure 4 PPCs translocation across a bEnd.3 in vitro BBB model. (A) bEnd.3 in vitro BBB model transwell system. The insert, or apex, corresponds to the blood side, while the base (bottom chamber) corresponds to the brain side. (B) After formation of a monolayer, 10 μM of each conjugate was added to the apical side of the tissue culture inserts. After incubation for 24 h, samples from the basolateral side were collected, and the percentage of translocation of each conjugate (black) was calculated. FD4 permeability (gray) was measured to determine monolayer integrity post-PPCs translocation.
An in vitro BBB model consisting of endothelial cells growing on the apical side of a porous membrane was used.[46] bEnd.3 cells (ATTCC-CRL2299) were cultured as a monolayer on T-flasks in DMEM supplemented with 10% fetal bovine serum (FBS), 1% penicillin/streptomycin. Cells were grown in a humidified atmosphere of 5% CO2 at 37 °C (MCO-18AIC (UV), Sanyo, Japan) with the medium changed every other day. Cells were allowed to grow until confluence in a culture T-flask, and then carefully harvested with trypsin-EDTA and seeded (3500 cells/well) onto fibronectin-coated tissue culture 24-well inserts (transparent polyester membrane with 1.0 μm pores) (BD Falcon, USA). The medium was changed every other day for 10 days, after which cells were washed twice with 1× PBS and once with DMEM medium without phenol red. Next, conjugates diluted in DMEM without phenol red to a final concentration of 10 μM were added to the apical side of the in vitro BBB model (Figure 4A). Experiments were performed on different days using independently grown cell cultures.
The translocation of conjugates was determined by fluorescence intensity (λexc = 380 nm and λem = 625 nm for MP conjugates, and λexc = 380 nm and λem = 675 nm for PP conjugates). P3-CF and P5-CF, peptides labeled with 5(6)-Carboxyfluorescein (CF), were used as positive translocation controls (λexc = 492 nm and λem = 517 nm). After 24 h incubation, samples from the apical and basolateral side were collected and analyzed. Fluorescence was measured using a Varioskan Lux plate reader (Thermo Scientific, MA, USA). The percentage (%) of translocation was calculated using the following equation: [drawing 1] 1 where Fi is the recovered fluorescence intensity, Fcells is the recovered fluorescence intensity from cells without the conjugate, and Fconjugate is the fluorescence intensity of total peptide initially added to the transwell apical side.

human erythrocytes = assay: Hemolysis assay; assay type: cell-based
Description: Plates were incubated for 1 h at 37 °C with 100 rpm stirring, then centrifuged for 5 min at 4000 rpm, 4 °C, and supernatants were transferred to a 96-well flat-bottom polystyrene plate (Corning). Hemolysis was assessed by hemoglobin (Hb) release, measured by absorbance at 415 nm in a Varioskan LUXTM microplate reader (Thermo Fisher Scientific, Inc.). As porphyrin and Hb spectra are partially overlapping, to exclude porphyrin interference in Hb quantification a blank reading of each PPC (no hRBCs, TN buffer +1% DMSO) was subtracted from each measurement. TN buffer (+1% DMSO, no conjugate) and hRBCs with 1% Triton X-100 were used as negative and positive controls, respectively. Hemolysis (%) was determined using the following equation: [drawing 6] 6 where Abstreated is the absorbance of hRBC treated with the conjugates, Absconjugate is the absorbance from each conjugate concentration without hRBCs, AbsTriton is the absorbance of Triton X-100 treated hRBCs, and Absbuffer is the absorbance of TN buffer alone. HC50 values were determined by GraphPad Prism 8 software using a log(inhibitor) vs normalized response (variable slope). Experiments were performed using 3 different blood donors.

| Substance | BBB translocation (in words) (bEnd.3 cell monolayers) | Hemolytic activity (in words) (human erythrocytes) |
| --- | --- | --- |
| P4-MP: mesoporphyrin IX coupled to the C-terminal Lys side chain of peptide P4 (AGILKRWK-amide) (AGILKRWK(mesoporphyrin IX)-NH2) | able to effectively pass the BBB | totally lacked hemolytic activity |
| MP-P5: mesoporphyrin IX coupled to the N-terminal amino group of peptide P5 (SGTQEEY-amide) ({mesoporphyrin IX}-SGTQEEY-NH2) | able to effectively pass the BBB | totally lacked hemolytic activity |
